Molecular target: T1, SF3b core complex, 6xHis-tagged (SF3B1 454–1304, 6xHis-SF3B3, SF3B5, PHF5A) (human, UniProt O75533 454-1304; Q15393 1-1217; Q9BWJ5 1-86; Q7RTV0 1-110)
T1 construct: SF3B1, human, residues 454-1304; SF3B3, human, full-length cDNA; SF3B5, human, full-length cDNA; PHF5A, human, full-length cDNA; the 6xHis tag replaces the N-terminal Twin-Strep tag of SF3B3, so it is probably N-terminal; also called SF3b core (6xHis-tagged); source: HEK293F, co-transfected, purified; prepared as the SF3b core except that the Strep-tag on SF3B3 was replaced by a 6xHis tag; …
Test: BLI; 6xHis-tagged SF3b core (20 µg/mL) captured on Ni-NTA biosensors; Flag-DDX42 or Flag-DDX46 as analyte; lysis buffer (20 mM HEPES-KOH pH 7.9, 150 mM NaCl, 1.5 mM MgCl2, 0.05% NP-40); about 100 s association, 100 s dissociation; 1:1 model; apparent constants
Details: both partners purified

T1 sequence (O75533 454-1304, chain 1 of 4): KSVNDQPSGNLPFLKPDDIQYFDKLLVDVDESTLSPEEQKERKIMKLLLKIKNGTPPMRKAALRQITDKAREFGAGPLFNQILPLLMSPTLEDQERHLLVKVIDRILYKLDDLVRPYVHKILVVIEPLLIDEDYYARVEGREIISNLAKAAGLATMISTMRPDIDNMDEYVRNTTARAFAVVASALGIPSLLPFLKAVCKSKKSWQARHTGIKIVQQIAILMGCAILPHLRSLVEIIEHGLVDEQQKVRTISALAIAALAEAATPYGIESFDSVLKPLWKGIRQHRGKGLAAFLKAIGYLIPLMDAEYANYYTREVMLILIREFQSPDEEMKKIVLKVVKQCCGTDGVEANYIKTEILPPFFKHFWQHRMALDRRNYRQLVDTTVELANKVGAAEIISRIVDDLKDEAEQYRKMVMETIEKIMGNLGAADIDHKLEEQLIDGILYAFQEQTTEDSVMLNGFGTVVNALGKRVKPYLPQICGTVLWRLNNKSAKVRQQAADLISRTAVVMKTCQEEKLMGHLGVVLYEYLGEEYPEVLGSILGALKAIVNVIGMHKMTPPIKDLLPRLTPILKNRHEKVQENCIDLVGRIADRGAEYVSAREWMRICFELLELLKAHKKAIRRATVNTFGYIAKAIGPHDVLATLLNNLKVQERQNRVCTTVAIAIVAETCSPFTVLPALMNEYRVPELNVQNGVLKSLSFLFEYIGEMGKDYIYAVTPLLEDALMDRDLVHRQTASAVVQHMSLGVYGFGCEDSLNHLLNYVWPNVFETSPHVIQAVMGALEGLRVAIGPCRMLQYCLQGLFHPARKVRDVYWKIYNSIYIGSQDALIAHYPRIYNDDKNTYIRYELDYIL
T1 sequence (Q15393 whole entry, chain 2 of 4, the tested form may be a part): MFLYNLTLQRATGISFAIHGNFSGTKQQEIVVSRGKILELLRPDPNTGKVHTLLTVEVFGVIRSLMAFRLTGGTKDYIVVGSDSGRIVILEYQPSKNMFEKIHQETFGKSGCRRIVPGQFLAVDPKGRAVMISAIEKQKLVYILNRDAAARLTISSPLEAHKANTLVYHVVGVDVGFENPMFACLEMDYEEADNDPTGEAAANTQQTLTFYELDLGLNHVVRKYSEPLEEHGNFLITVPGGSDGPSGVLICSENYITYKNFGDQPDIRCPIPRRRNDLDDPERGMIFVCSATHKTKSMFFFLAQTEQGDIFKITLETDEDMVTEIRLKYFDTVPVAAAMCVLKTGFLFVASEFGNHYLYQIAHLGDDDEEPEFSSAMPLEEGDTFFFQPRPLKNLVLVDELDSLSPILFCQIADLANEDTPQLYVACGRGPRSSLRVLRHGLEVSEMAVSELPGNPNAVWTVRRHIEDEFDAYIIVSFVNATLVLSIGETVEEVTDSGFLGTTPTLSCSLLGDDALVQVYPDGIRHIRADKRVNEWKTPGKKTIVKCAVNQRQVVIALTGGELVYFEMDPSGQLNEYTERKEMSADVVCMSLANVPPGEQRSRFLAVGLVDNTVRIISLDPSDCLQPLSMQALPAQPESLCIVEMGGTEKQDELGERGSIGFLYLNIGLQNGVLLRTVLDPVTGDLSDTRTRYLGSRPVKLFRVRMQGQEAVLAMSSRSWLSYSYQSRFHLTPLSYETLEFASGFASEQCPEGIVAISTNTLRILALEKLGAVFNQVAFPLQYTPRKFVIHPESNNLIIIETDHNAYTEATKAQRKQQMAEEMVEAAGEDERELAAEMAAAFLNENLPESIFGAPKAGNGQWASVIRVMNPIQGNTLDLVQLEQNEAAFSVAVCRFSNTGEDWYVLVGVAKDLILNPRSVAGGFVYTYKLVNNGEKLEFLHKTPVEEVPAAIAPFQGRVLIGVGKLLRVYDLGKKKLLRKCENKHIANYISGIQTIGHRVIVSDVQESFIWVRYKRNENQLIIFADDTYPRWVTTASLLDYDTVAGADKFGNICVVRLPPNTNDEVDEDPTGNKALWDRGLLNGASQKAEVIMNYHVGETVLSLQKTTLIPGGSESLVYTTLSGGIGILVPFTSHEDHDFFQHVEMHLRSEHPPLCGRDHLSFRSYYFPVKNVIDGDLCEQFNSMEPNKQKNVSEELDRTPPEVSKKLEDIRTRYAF
T1 sequence (Q9BWJ5 whole entry, chain 3 of 4, the tested form may be a part): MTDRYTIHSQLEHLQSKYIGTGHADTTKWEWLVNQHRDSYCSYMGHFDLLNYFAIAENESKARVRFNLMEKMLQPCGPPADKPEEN
T1 sequence (Q7RTV0 whole entry, chain 4 of 4, the tested form may be a part): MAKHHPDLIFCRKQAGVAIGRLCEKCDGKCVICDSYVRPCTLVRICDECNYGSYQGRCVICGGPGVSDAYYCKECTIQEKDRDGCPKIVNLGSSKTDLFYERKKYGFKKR

Kd [nM] | Binder
66 | Flag-DDX46 (natural protein, DDX46, human; source: HEK293F, overexpressed, purified (anti-Flag M2, Hitrap Heparin)) MGRESRHYRKRSASRGRSGSRSRSRSPSDKRSKRGDDRRSRSRDRDRRRERSRSRDKRRSRSRDRKRLRRSRSRERDRSRERRRSRSRDRRRSRSRSRGRRSRSSSPGNKSKKTENRSRSKEKTDGGESSKEKKKDKDDKEDEKEKDAGNFDQNKLEEEMRKRKERVEKWREEQRKKAMENIGELKKEIEEMKQGKKWSLEDDDDDEDDPAEAEKEGNEMEGEELDPLDAYMEEVKEEVKKFNMRSVKGGGGNEKKSGPTVTKVVTVVTTKKAVVDSDKKKGELMENDQDAMEYSSEEEEVDLQTALTGYQTKQRKLLEPVDHGKIEYEPFRKNFYVEVPELAKMSQEEVNVFRLEMEGITVKGKGCPKPIKSWVQCGISMKILNSLKKHGYEKPTPIQTQAIPAIMSGRDLIGIAKTGSGKTIAFLLPMFRHIMDQRSLEEGEGPIAVIMTPTRELALQITKECKKFSKTLGLRVVCVYGGTGISEQIAELKRGAEIIVCTPGRMIDMLAANSGRVTNLRRVTYVVLDEADRMFDMGFEPQVMRIVDNVRPDRQTVMFSATFPRAMEALARRILSKPIEVQVGGRSVVCSDVEQQVIVIEEEKKFLKLLELLGHYQESGSVIIFVDKQEHADGLLKDLMRASYPCMSLHGGIDQYDRDSIINDFKNGTCKLLVATSVAARGLDVKHLILVVNYSCPNHYEDYVHRAGRTGRAGNKGYAYTFITEDQARYAGDIIKALELSGTAVPPDLEKLWSDFKDQQKAEGKIIKKSSGFSGKGFKFDETEQALANERKKLQKAALGLQDSDDEDAAVDIDEQIESMFNSKKRVKDMAAPGTSSVPAPTAGNAEKLEIAKRLALRINAQKNLGIESQDVMQQATNAILRGGTILAPTVSAKTIAEQLAEKINAKLNYVPLEKQEEERQDGGQNESFKRYEEELEINDFPQTARWKVTSKEALQRISEYSEAAITIRGTYFPPGKEPKEGERKIYLAIESANELAVQKAKAEITRLIKEELIRLQNSYQPTNKGRYKVL
23 | Flag-DDX42 (full-length) (natural protein, DDX42, human, full-length cDNA; N-plug residues 69-81, helix alpha-3 114-135, helices alpha-2/alpha-1 145-167, helicase domain 207-643; source: HEK293F, transfected (pCAG): co-expressed with the SF3b core; alone as bait in lysate; not shown: Flag, N-terminal, kept) MNWNKGGPGTKRGFGFGGFAISAGKKEEPKLPQQSHSAFGATSSSSGFGKSAPPQLPSFYKIGSKRANFDEENAYFEDEEEDSSNVDLPYIPAENSPTRQQFHSKPVDSDSDDDPLEAFMAEVEDQAARDMKRLEEKDKERKNVKGIRDDIEEEDDQEAYFRYMAENPTAGVVQEEEEDNLEYDSDGNPIAPTKKIIDPLPPIDHSEIDYPPFEKNFYNEHEEITNLTPQQLIDLRHKLNLRVSGAAPPRPGSSFAHFGFDEQLMHQIRKSEYTQPTPIQCQGVPVALSGRDMIGIAKTGSGKTAAFIWPMLIHIMDQKELEPGDGPIAVIVCPTRELCQQIHAECKRFGKAYNLRSVAVYGGGSMWEQAKALQEGAEIVVCTPGRLIDHVKKKATNLQRVSYLVFDEADRMFDMGFEYQVRSIASHVRPDRQTLLFSATFRKKIEKLARDILIDPIRVVQGDIGEANEDVTQIVEILHSGPSKWNWLTRRLVEFTSSGSVLLFVTKKANAEELANNLKQEGHNLGLLHGDMDQSERNKVISDFKKKDIPVLVATDVAARGLDIPSIKTVINYDVARDIDTHTHRIGRTGRAGEKGVAYTLLTPKDSNFAGDLVRNLEGANQHVSKELLDLAMQNAWFRKSRFKGGKGKKLNIGGGGLGYRERPGLGSENMDRGNNNVMSNYEAYKPSTGAMGDRLTAMKAAFQSQYKSHFVAASLSNQKAGSSAAGASGWTSAGSLNSVPTNSAQQGHNSPDSPVTSAAKGIPGFGNTGNISGAPVTYPSAGAQGVNNTASGNNSREGTGGSNGKRERYTENRGSSRHSHGETGNRHSDSPRHGDGGRHGDGYRHPESSSRHTDGHRHGENRHGGSAGRHGENRGANDGRNGESRKEAFNRESKMEPKMEPKVDSSKMDKVDSKTDKTADGFAVPEPPKRKKSRWDS

Reference: article PMC9935549, “Mechanisms of the RNA helicases DDX42 and DDX46 in human U2 snRNP assembly” (Nature Communications, 2023)
